The labels stand for the following.
B1: SARS-CoV-2 envelope (E) protein C-terminal 18-amino acid peptide (Ec18) (peptide)
peptide: VYSRVKNLNSSRVPDLLV
notes: SARS-CoV-2 envelope (E) protein, 75 residues; also called E C-terminal peptide
B2: PALS1 PSG (PDZ, SH3 and GK domains; residues 236–675 with a deletion between 411–460) (domain or fragment, human, UniProt Q8N3R9 236-675, looked up)
chain: PITDERVYESIGQYGGETVKIVRIEKARDIPLGATVRNEMDSVIISRIVKGGAAEKSGLLHEGDEVLEINGIEIRGKDVNEVFDLLSDMHGTLTFVLIPSQQIKPPPAKETVIHVKAHFDYDPSDDPYVPCRELGLSFQKGDILHVISQEDPNWWQAYREGDEDNQPLAGLVPGKEEILTYEEMSLYHQPANRKRPIILIGPQNCGQNELRQRLMNKEKDRFASAVPHTTRSRRDQEVAGRDYHFVSRQAFEADIAAGKFIEHGEFEKNLYGTSIDSVRQVINSGKICLLSLRTQSLKTLRNSDLKPYIIFIAPPSQERLRALLAKEGKNPKPEELREIIEKTREMEQNNGHYFDTAIVNSDLDKAYQELLRLINKLDTEPQWVPSTWLR
modifications: covalently labeled with dye NT647 (in the MST measurement only)
notes: PALS1, human cell junction protein; PDZ, SH3 and GK domains (PSG), residues 236–675, without the loop between the SH3 and GK domains (deletion between 411–460); codon-optimised synthetic gene in pET16-b; also called PASL1–PSG domains; source: E. coli BL21 (DE3) pLysS, purified (Ni-NTA, TEV cleavage, second Ni-NTA, SEC); not shown: 10x His, N-terminal, cleaved

For series [1], the target named is B2. Nature of the series: MST; […]; 50 mM Tris pH 7.5, 100 mM NaCl, 1 mM DTT, 1 mM EDTA, 0.05% Tween 20; 10 min at room temperature; […]. The note with it: both partners purified.
Series [2] concerns the molecule itself. Nature of the series: SEC; purified PSG on a TSKgel G3000SW column in 25 mM Tris pH 7.5, 100 mM NaCl, 1 mM TCEP. On the technique in general: Size exclusion chromatography separates by hydrodynamic size, large species first.

Broadly, the Kd is a measure of binding affinity in units of concentration. A low value points to tighter binding. For B1, in series [1], the Kd is 11.2 µM.
One may read the stoichiometry N as a count of units in the complex or per binding partner. Take B2: in series [2], the “stoichiometry N” value was determined as 2.

The values above are taken from article PMC8187709, “Structural basis for SARS-CoV-2 envelope protein recognition of human cell junction protein PALS1” (Nature Communications, 2021).
